Results from patent publication US20150376237A1, “POLYPEPTIDES FOR BLOOD BRAIN BARRIER TRANSPORT” (SAGETIS BIOTECH, SL, priority 2012, published 2015).

Tested on: in vitro BBB model (bovine brain endothelial cells co-cultured with mouse mixed glial cells)
Test: Fluorescently-labelled peptide in vitro BBB model crossing test
Conditions: fluorescent peptide, 20 μg/ml fluorophore in DMEM/F12, 60 min at 37° C.
Protocol: Mouse primary cultures of mixed glial cells are seeded on a 24-well plate and bovine brain endothelial cells are cultured on collagen-coated inserts in another plate. After three days, the inserts are moved into astrocyte-containing plates and cultured for a further three days. To assess the integrity of the in vitro BBB, trans-endothelial electrical resistance (TEER) is measured on the day of the experiment. TEER values higher than 200Ω/cm^2 are considered acceptable.
Peptides are applied at 20 μg/ml of fluorophore in the luminal side of the inserts and placed in wells filled with Ringer-Hepes buffer (the composition of Ringer-Hepes buffer is described above). After 1 h incubation, samples from the upper and lower compartments are collected and measured using a fluorimeter. […]
All samples (t=0 up, t=0 down, t=60 up and t=60 down) from each condition (testing peptides and negative control) are plated in black 96-well microplates as well as the corresponding standard curves. Fluorescence is measured using a multi-well plate reader. […]
The endothelial permeability coefficient values for LY and the tested peptide are also determined. […] The increment in cleared volume between the incubation times is calculated by dividing the amount of transported compound by the donor chamber concentration and calculating the total volume cleared, as shown below: […]

In the case of “SEQ ID NO: 12: GDAAAAKAAKAAAKAAADGY, rigid polypeptide, single domain binder (Rigid_1)”, the “Percentage BBB crossing” value was “Percentage BBB crossing: 7.51%”.
